In US20190021294A1 (WAKE FOREST UNIVERSITY HEALTH SCIENCES, published 2019):

Biological target: the molecule itself
Test: X-ray crystal structure of the TREX1 D18N-dsDNA complex (homodimer of protomers)
Method: Structure Determination. The mouse recombinant Trex1 enzyme (amino acids 1-242) was prepared and crystallized with a dsDNA oligonucleotide. The X-ray data were collected and processed as described further below.
Protein Crystallization and X-ray Data Collection. The TREX1 D18N mutant was crystallized using the sitting drop vapor diffusion technique. The protein was dialyzed in 20 mM MES (pH 6.5), 50 mM NaCl and concentrated to 10 mg/mL. The pseudo-palindromic oligonucleotide DNA used for crystallization (5′-[…]-3′ (SEQ ID NO:1, Operon)) was self-annealed in buffer consisting of 20 mM NaCl, 5 mM MgCl₂, and 5 mM MES, pH 6.5. The complex was formed by incubating dsDNA with the protein in a 1:1 ratio and 5 mM magnesium chloride. A volume of 1 μl protein complex at 4 mg/ml TREX1 was mixed with an equal volume of reservoir solution and placed on a bridge above 500 μl of the reservoir solution. Optimized crystals of the TREX1 D18N mutant grew in 0.1 M sodium acetate and 9% PEG 4000 at 25° C. Prior to data collection all crystals were immersed in reservoir solution containing 10% oil (1:1 mineral oil and pantone-N) in preparation for cryo-cooling. Crystals were mounted on a nylon loop and flash cooled to 100 K in a stream of liquid nitrogen.

B1: mouse recombinant TREX1 D18N enzyme (amino acids 1-242) (enzyme, Mus musculus, UniProt Q91XB0 1-242, looked up)
chain: MGSQTLPHGHMQTLIFLNLEATGLPSSRPEVTELCLLAVHRRALENTSISQGHPPPVPRPPRVVDKLSLCIAPGKACSPGASEITGLSKAELEVQGRQRFDDNLAILLRAFLQRQPQPCCLVAHNGDRYDFPLLQTELARLSTPSPLDGTFCVDSIAALKALEQASSPSGNGSRKSYSLGSIYTRLYWQAPTDSHTAEGDVLTLLSICQWKPQALLQWVDEHARPFSTVKPMYGTPATTGTT
notes: range 1-242; Written as one protomer, because the entry is the protomer-protomer association; also called TREX1 D18N mutant; TREX1 D18N protomer
B1: binds.
